Experimental data taken from publication PMC9482650, “Quantitative fragmentomics allow affinity mapping of interactomes” (Nature Communications, 2022).

molecular target: GRID2IP_2, A4D2P6; assay: holdup assay; design: key: below the threshold = too weak to quantify, mostly under pKd 3.1 to 4; settings: plain residues with an end cap or a label only (N-terminal biotin on a linker: ado-ado)
Sequence (A4D2P6 272-370): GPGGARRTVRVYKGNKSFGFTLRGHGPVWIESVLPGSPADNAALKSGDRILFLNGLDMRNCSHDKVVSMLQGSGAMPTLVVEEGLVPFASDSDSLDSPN

**Q.** For RTQSSDSAYV [GJD2, Q9UKL4], which pKd is on record?
**A.** The pKd was “below the threshold”.

molecular target: GRIP2_4, Q9C0E4; assay: holdup assay; design: key: below the threshold = too weak to quantify, mostly under pKd 3.1 to 4; settings: plain residues with an end cap or a label only (N-terminal biotin on a linker: ado-ado)
Sequence (Q9C0E4 446-548): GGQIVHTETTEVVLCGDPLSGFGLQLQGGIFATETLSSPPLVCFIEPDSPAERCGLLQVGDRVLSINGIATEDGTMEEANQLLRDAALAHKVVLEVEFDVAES

**Q.** RTQSSDSAYV [GJD2, Q9UKL4] was tested. Which pKd did it give?
**A.** The pKd was “below the threshold”.

molecular target: T1, NHERF3_4, Q5T2W1; assay: holdup assay; design: key: below the threshold = too weak to quantify, mostly under pKd 3.1 to 4; settings: plain residues with an end cap or a label only (N-terminal biotin on a linker: ado-ado)
T1 sequence (Q5T2W1 373-468, limits assumed, looked up): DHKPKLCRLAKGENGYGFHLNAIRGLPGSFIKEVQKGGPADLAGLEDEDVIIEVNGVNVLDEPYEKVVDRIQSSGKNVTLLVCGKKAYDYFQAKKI

**Q.** With RTQSSDSAYV [GJD2, Q9UKL4] as the binder, how does the pKd read?
**A.** Its pKd is 3.54.

molecular target: MAST1, Q9Y2H9; assay: holdup assay; design: key: below the threshold = too weak to quantify, mostly under pKd 3.1 to 4; settings: plain residues with an end cap or a label only (N-terminal biotin on a linker: ado-ado)
Sequence (Q9Y2H9 962-1065): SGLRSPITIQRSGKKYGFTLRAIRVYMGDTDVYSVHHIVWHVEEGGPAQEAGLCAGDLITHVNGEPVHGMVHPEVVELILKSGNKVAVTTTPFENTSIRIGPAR

**Q.** RTQSSDSAYV [GJD2, Q9UKL4] was tested. Which pKd did it give?
**A.** The pKd was “below the threshold”.

molecular target: T2, MPDZ_12, O75970; assay: holdup assay; design: key: below the threshold = too weak to quantify, mostly under pKd 3.1 to 4; settings: plain residues with an end cap or a label only (N-terminal biotin on a linker: ado-ado)
T2 sequence (O75970 1857-1958, limits assumed, looked up): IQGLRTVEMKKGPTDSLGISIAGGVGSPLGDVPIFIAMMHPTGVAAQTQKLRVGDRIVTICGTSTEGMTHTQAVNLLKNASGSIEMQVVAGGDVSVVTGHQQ

**Q.** For RTQSSDSAYV [GJD2, Q9UKL4], which pKd is on record?
**A.** The pKd was “below the threshold”.

molecular target: FRMPD2_1, Q68DX3; assay: holdup assay; design: key: below the threshold = too weak to quantify, mostly under pKd 3.1 to 4; settings: plain residues with an end cap or a label only (N-terminal biotin on a linker: ado-ado)
Sequence (Q68DX3 770-861): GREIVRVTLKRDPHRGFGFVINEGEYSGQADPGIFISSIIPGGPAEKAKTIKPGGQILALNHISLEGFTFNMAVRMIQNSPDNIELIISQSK

**Q.** Which pKd does the source give for RTQSSDSAYV [GJD2, Q9UKL4] here?
**A.** Its pKd is 3.66.

molecular target: GORASP2, Q9H8Y8; assay: holdup assay; design: key: below the threshold = too weak to quantify, mostly under pKd 3.1 to 4; settings: plain residues with an end cap or a label only (N-terminal biotin on a linker: ado-ado)

**Q.** RTQSSDSAYV [GJD2, Q9UKL4] was tested. Which pKd did it give?
**A.** Its pKd is 3.78.

molecular target: T3, DLG3_2, Q92796; assay: holdup assay; design: key: below the threshold = too weak to quantify, mostly under pKd 3.1 to 4; settings: plain residues with an end cap or a label only (N-terminal biotin on a linker: ado-ado)
T3 sequence (Q92796 221-321, limits assumed, looked up): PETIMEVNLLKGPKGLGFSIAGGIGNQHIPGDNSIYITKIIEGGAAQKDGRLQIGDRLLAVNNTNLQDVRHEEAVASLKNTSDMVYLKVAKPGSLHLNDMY

**Q.** RTQSSDSAYV [GJD2, Q9UKL4] was tested. Which pKd did it give?
**A.** Its pKd is “below the threshold”.

molecular target: T4, PARD3B_1, Q8TEW8; assay: holdup assay; design: key: below the threshold = too weak to quantify, mostly under pKd 3.1 to 4; settings: plain residues with an end cap or a label only (N-terminal biotin on a linker: ado-ado)
T4 sequence (Q8TEW8 196-299, limits assumed, looked up): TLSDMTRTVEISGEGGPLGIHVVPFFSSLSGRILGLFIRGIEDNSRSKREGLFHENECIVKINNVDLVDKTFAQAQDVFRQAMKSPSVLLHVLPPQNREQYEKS

**Q.** Which pKd does the source give for RTQSSDSAYV [GJD2, Q9UKL4] here?
**A.** Its pKd is 4.63.

molecular target: T5, RHPN1, Q8TCX5; assay: holdup assay; design: key: below the threshold = too weak to quantify, mostly under pKd 3.1 to 4; settings: plain residues with an end cap or a label only (N-terminal biotin on a linker: ado-ado)
T5 sequence (Q8TCX5 508-602, limits assumed, looked up): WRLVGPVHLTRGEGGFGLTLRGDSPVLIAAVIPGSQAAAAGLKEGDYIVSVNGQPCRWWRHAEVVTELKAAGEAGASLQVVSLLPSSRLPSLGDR

**Q.** For RTQSSDSAYV [GJD2, Q9UKL4], which pKd is on record?
**A.** Its pKd is 3.84.

molecular target: LNX1_1, Q8TBB1; assay: holdup assay; design: key: below the threshold = too weak to quantify, mostly under pKd 3.1 to 4; settings: plain residues with an end cap or a label only (N-terminal biotin on a linker: ado-ado)
Sequence (Q8TBB1 261-371): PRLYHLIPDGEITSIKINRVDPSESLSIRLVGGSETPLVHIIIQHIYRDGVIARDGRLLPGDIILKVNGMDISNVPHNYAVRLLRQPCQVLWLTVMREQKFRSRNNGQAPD

**Q.** With RTQSSDSAYV [GJD2, Q9UKL4] as the binder, how does the pKd read?
**A.** The pKd was 3.9.

molecular target: Inadl_8, Q8NI35; assay: holdup assay; design: key: below the threshold = too weak to quantify, mostly under pKd 3.1 to 4; settings: plain residues with an end cap or a label only (N-terminal biotin on a linker: ado-ado)
Sequence (Q8NI35 1425-1530): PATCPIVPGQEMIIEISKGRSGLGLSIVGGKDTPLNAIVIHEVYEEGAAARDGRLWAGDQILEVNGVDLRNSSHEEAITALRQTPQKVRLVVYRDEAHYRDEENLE

**Q.** For RTQSSDSAYV [GJD2, Q9UKL4], which pKd is on record?
**A.** The pKd was 3.7.

molecular target: T6, DVL3, Q92997; assay: holdup assay; design: key: below the threshold = too weak to quantify, mostly under pKd 3.1 to 4; settings: plain residues with an end cap or a label only (N-terminal biotin on a linker: ado-ado)
T6 sequence (Q92997 244-331, limits assumed, looked up): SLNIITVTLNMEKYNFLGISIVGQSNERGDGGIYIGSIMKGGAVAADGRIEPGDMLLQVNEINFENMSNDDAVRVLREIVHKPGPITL

**Q.** How did the pKd turn out when RTQSSDSAYV [GJD2, Q9UKL4] was run?
**A.** The pKd was 3.48.

molecular target: PARD3_3, Q8TEW0; assay: holdup assay; design: key: below the threshold = too weak to quantify, mostly under pKd 3.1 to 4; settings: plain residues with an end cap or a label only (N-terminal biotin on a linker: ado-ado)
Sequence (Q8TEW0 582-685): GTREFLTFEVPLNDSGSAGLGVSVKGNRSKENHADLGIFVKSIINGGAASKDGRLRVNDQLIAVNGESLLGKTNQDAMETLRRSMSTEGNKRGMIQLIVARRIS

**Q.** RTQSSDSAYV [GJD2, Q9UKL4] was tested. Which pKd did it give?
**A.** Its pKd is 3.68.

molecular target: T7, SNTG2, Q9NY99; assay: holdup assay; design: key: below the threshold = too weak to quantify, mostly under pKd 3.1 to 4; settings: plain residues with an end cap or a label only (N-terminal biotin on a linker: ado-ado)
T7 sequence (Q9NY99 68-166, limits assumed, looked up): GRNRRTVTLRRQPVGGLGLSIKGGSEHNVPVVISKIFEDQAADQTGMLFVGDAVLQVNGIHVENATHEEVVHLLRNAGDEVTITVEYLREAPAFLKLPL

**Q.** Which pKd does the source give for RTQSSDSAYV [GJD2, Q9UKL4] here?
**A.** The pKd was “below the threshold”.

molecular target: LIMK2, P53671; assay: holdup assay; design: key: below the threshold = too weak to quantify, mostly under pKd 3.1 to 4; settings: plain residues with an end cap or a label only (N-terminal biotin on a linker: ado-ado)
Sequence (P53671 143-248): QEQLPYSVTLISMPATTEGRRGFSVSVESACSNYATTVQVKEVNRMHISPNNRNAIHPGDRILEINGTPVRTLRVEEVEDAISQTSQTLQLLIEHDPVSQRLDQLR

**Q.** With RTQSSDSAYV [GJD2, Q9UKL4] as the binder, how does the pKd read?
**A.** The pKd was “below the threshold”.

molecular target: GOPC, Q9HD26; assay: holdup assay; design: key: below the threshold = too weak to quantify, mostly under pKd 3.1 to 4; settings: plain residues with an end cap or a label only (N-terminal biotin on a linker: ado-ado)

**Q.** How did the pKd turn out when RTQSSDSAYV [GJD2, Q9UKL4] was run?
**A.** The pKd was “below the threshold”.

molecular target: TJP1_2, Q07157; assay: holdup assay; design: key: below the threshold = too weak to quantify, mostly under pKd 3.1 to 4; settings: plain residues with an end cap or a label only (N-terminal biotin on a linker: ado-ado)
Sequence (Q07157 181-274): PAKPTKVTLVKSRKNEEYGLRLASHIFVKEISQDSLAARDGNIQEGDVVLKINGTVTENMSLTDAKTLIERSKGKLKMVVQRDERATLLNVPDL

**Q.** Which pKd does the source give for RTQSSDSAYV [GJD2, Q9UKL4] here?
**A.** The pKd was “below the threshold”.

molecular target: T8, DLG3_1, Q92796; assay: holdup assay; design: key: below the threshold = too weak to quantify, mostly under pKd 3.1 to 4; settings: plain residues with an end cap or a label only (N-terminal biotin on a linker: ado-ado)
T8 sequence (Q92796 125-227, limits assumed, looked up): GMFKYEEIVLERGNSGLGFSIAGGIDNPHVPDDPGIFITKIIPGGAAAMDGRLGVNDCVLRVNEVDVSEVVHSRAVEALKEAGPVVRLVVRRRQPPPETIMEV

**Q.** How did the pKd turn out when RTQSSDSAYV [GJD2, Q9UKL4] was run?
**A.** The pKd was “below the threshold”.

molecular target: SCRIB_1, Q14160; assay: holdup assay; design: key: below the threshold = too weak to quantify, mostly under pKd 3.1 to 4; settings: plain residues with an end cap or a label only (N-terminal biotin on a linker: ado-ado)
Sequence (Q14160 718-814): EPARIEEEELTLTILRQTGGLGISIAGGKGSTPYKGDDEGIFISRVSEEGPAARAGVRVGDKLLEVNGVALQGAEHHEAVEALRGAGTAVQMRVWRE

**Q.** For RTQSSDSAYV [GJD2, Q9UKL4], which pKd is on record?
**A.** Its pKd is “below the threshold”.

molecular target: LNX1_2, Q8TBB1; assay: holdup assay; design: key: below the threshold = too weak to quantify, mostly under pKd 3.1 to 4; settings: plain residues with an end cap or a label only (N-terminal biotin on a linker: ado-ado)
Sequence (Q8TBB1 371-470): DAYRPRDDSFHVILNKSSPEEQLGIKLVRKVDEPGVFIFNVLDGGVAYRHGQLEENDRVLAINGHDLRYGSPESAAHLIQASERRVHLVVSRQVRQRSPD

**Q.** With RTQSSDSAYV [GJD2, Q9UKL4] as the binder, how does the pKd read?
**A.** The pKd was 4.11.

molecular target: MAST2, Q6P0Q8; assay: holdup assay; design: key: below the threshold = too weak to quantify, mostly under pKd 3.1 to 4; settings: plain residues with an end cap or a label only (N-terminal biotin on a linker: ado-ado)
Sequence (Q6P0Q8 1099-1202): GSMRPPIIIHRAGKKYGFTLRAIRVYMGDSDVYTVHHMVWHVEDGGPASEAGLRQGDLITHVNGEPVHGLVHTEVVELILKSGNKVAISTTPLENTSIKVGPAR

**Q.** RTQSSDSAYV [GJD2, Q9UKL4] was tested. Which pKd did it give?
**A.** Its pKd is 4.17.

molecular target: T9, APBA2_1, Q99767; assay: holdup assay; design: key: below the threshold = too weak to quantify, mostly under pKd 3.1 to 4; settings: plain residues with an end cap or a label only (N-terminal biotin on a linker: ado-ado)
T9 sequence (Q99767 563-664, limits assumed, looked up): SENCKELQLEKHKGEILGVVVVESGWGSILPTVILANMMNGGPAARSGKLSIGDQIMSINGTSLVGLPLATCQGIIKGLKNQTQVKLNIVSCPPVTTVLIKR

**Q.** With RTQSSDSAYV [GJD2, Q9UKL4] as the binder, how does the pKd read?
**A.** Its pKd is “below the threshold”.

molecular target: Inadl_6, Q8NI35; assay: holdup assay; design: key: below the threshold = too weak to quantify, mostly under pKd 3.1 to 4; settings: plain residues with an end cap or a label only (N-terminal biotin on a linker: ado-ado)
Sequence (Q8NI35 1058-1167): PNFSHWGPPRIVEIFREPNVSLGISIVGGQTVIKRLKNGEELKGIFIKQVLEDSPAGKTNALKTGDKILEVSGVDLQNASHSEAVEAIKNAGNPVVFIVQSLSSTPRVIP

**Q.** How did the pKd turn out when RTQSSDSAYV [GJD2, Q9UKL4] was run?
**A.** Its pKd is “below the threshold”.

molecular target: T10, SHANK1, Q9Y566; assay: holdup assay; design: key: below the threshold = too weak to quantify, mostly under pKd 3.1 to 4; settings: plain residues with an end cap or a label only (N-terminal biotin on a linker: ado-ado)
T10 sequence (Q9Y566 658-767, limits assumed, looked up): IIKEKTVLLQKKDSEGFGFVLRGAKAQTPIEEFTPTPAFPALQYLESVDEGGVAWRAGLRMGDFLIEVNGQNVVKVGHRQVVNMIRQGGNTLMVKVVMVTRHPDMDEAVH

**Q.** For RTQSSDSAYV [GJD2, Q9UKL4], which pKd is on record?
**A.** Its pKd is “below the threshold”.

molecular target: SCRIB_2, Q14160; assay: holdup assay; design: key: below the threshold = too weak to quantify, mostly under pKd 3.1 to 4; settings: plain residues with an end cap or a label only (N-terminal biotin on a linker: ado-ado)
Sequence (Q14160 857-960): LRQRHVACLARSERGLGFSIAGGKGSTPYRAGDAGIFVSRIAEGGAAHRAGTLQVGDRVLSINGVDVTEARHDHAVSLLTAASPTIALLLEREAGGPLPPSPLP

**Q.** RTQSSDSAYV [GJD2, Q9UKL4] was tested. Which pKd did it give?
**A.** The pKd was “below the threshold”.

molecular target: IL16_3, Q14005; assay: holdup assay; design: key: below the threshold = too weak to quantify, mostly under pKd 3.1 to 4; settings: plain residues with an end cap or a label only (N-terminal biotin on a linker: ado-ado)
Sequence (Q14005 1107-1207): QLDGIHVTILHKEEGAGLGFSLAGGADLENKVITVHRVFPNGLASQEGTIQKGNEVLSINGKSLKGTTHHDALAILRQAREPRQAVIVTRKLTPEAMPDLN

**Q.** For RTQSSDSAYV [GJD2, Q9UKL4], which pKd is on record?
**A.** The pKd was “below the threshold”.
